B1: Chromodomain-helicase-DNA-binding protein 4, residues 365 to 417; numbered along this chain, Q14839 (parent)
chain: YETDHQDYCEVCQQGGEIILCDTCPRAYHMVCLDPDMEKAPEGKWSCPHCEKE

The text below walks through data of the Human Domainome abundance scans (Beltran et al. 2025).

± gives the uncertainty stated by the source.

The variants in the data set derive from B1. As to the kind of experiment: abundance fitness (aPCA) (normalised: wild type 0, dead -1); higher = more abundant; growth selection in yeast, the domain comes from the species named. As to conditions: Homo sapiens.
Regarding C32W, the abundance fitness is -0.936 ± 0.13.
The figure for C32F is -1.02 ± 0.25; for C32A it is -0.737 ± 0.14; for C32V it is -0.63 ± 0.12.
For C32H, the abundance fitness is -0.072 ± 0.21.
For the variant C32G, the abundance fitness is -0.967 ± 0.13.
Consider C32N, for which the abundance fitness is -1.04 ± 0.39.
As for C32D, the abundance fitness was -0.486 ± 0.21.
Turning to C32Y, the abundance fitness was -1 ± 0.21.
Consider C32S, for which the abundance fitness was -0.952 ± 0.14.
The figure for C32M is -0.687 ± 0.15; for T23L it is -0.107 ± 0.12.
For the variant T23H, the abundance fitness was 0.312 ± 0.2.
T23S: the abundance fitness turned out to be 0.033 ± 0.12.
The figure for T23V is -0.231 ± 0.12; for T23K it is -0.219 ± 0.2.
Turning to T23I, the abundance fitness is -0.236 ± 0.14.
Turning to T23N, the abundance fitness is -0.201 ± 0.24.
For T23D, the abundance fitness was -0.052 ± 0.14.
Take T23R: the abundance fitness is -0.363 ± 0.11.
As to T23Q, the abundance fitness is -0.107 ± 0.18.
With T23A, the abundance fitness is -0.459 ± 0.13.
Next, T23Y: -0.296 ± 0.18; T23M: -0.297 ± 0.18; T23C: -0.257 ± 0.13.
For T23P, the abundance fitness is -0.922 ± 0.23.
T23W: the abundance fitness was -0.327 ± 0.17.
For the variant T23F, the abundance fitness was -0.099 ± 0.15.
Turning to T23G, the abundance fitness is -0.189 ± 0.098.
Regarding E17K, the abundance fitness was -0.153 ± 0.15.
On to E17N, for which the abundance fitness is 0.115 ± 0.13.
For the variant E17Y, the abundance fitness was -0.055 ± 0.13.
The figure for E17G is -0.171 ± 0.1; for E17M it is -0.149 ± 0.15; for E17S it is -0.033 ± 0.09.
The figure for E17I is -0.199 ± 0.14; for E17F it is -0.222 ± 0.11; for E17A it is -0.149 ± 0.12.
With E17W, the abundance fitness was -0.412 ± 0.12.
Turning to E17D, the abundance fitness was -0.109 ± 0.12.
The figure for E17H is -0.11 ± 0.16; for E17L it is -0.322 ± 0.085.
Take E17Q: the abundance fitness is -0.135 ± 0.17.
Next, E17T: -0.033 ± 0.11; E17C: -0.308 ± 0.14; E17V: -0.076 ± 0.11.
For the variant E17R, the abundance fitness is -0.115 ± 0.086.
With Y28F, the abundance fitness was determined as 0.012 ± 0.16.
Next, Y28I: -0.295 ± 0.14; Y28P: -0.704 ± 0.14; Y28D: -0.526 ± 0.19.
Next, Y28M: 0.048 ± 0.12.
As to Y28H, the abundance fitness was determined as 0.023 ± 0.22.
As for Y28Q, the abundance fitness is -0.395 ± 0.14.
With Y28K, the abundance fitness was -0.267 ± 0.16.
As to Y28L, the abundance fitness is -0.073 ± 0.098.
As to Y28V, the abundance fitness was -0.05 ± 0.096.
For the variant Y28T, the abundance fitness was -0.284 ± 0.14.
With Y28N, the abundance fitness was -0.403 ± 0.18.
Consider Y28S, for which the abundance fitness is -0.271 ± 0.098.
Next, Y28R: -0.254 ± 0.094.
In the case of Y28C, the abundance fitness was -0.582 ± 0.16.
As for Y28E, the abundance fitness is -0.649 ± 0.12.
Next, Y28W: 0.086 ± 0.12.
For the variant D36A, the abundance fitness was -0.079 ± 0.12.
The figure for L20W is -0.146 ± 0.12.
Consider L20R, for which the abundance fitness is 0.113 ± 0.089.
On to L20M, for which the abundance fitness was -0.011 ± 0.14.
Take L20E: the abundance fitness worked out at 0.01 ± 0.12.
Take L20A: the abundance fitness is 0.08 ± 0.1.
L20C: the abundance fitness was -0.045 ± 0.12.
In the case of L20P, the abundance fitness was determined as 0.149 ± 0.12.
With L20S, the abundance fitness is -0.013 ± 0.096.
Take L20I: the abundance fitness turned out to be 0.023 ± 0.15.
For L20V, the abundance fitness was -0.028 ± 0.1.
Turning to L20Q, the abundance fitness was -0.022 ± 0.18.
The figure for L20N is -0.083 ± 0.14; for L20H it is 0.143 ± 0.17; for L20D it is 0.178 ± 0.12.
Consider L20T, for which the abundance fitness is 0.036 ± 0.13.
The figure for L20F is -0.096 ± 0.17.
Turning to L20Y, the abundance fitness is -0.179 ± 0.2.
Turning to A27Y, the abundance fitness was 0.086 ± 0.15.
Turning to A27S, the abundance fitness was -0.088 ± 0.13.
For A27Q, the abundance fitness was -0.424 ± 0.16.
Consider A27I, for which the abundance fitness was -0.421 ± 0.14.
Take A27L: the abundance fitness is -0.15 ± 0.094.
Next, A27H: -0.276 ± 0.18.
Turning to A27C, the abundance fitness was -0.02 ± 0.2.
On to A27K, for which the abundance fitness was -0.238 ± 0.18.
On to A27T, for which the abundance fitness is -0.094 ± 0.12.
The figure for A27W is -0.257 ± 0.13; for A27P it is -0.262 ± 0.17; for A27G it is -0.162 ± 0.099.
Consider A27F, for which the abundance fitness was -0.172 ± 0.17.
For A27D, the abundance fitness was -0.545 ± 0.2.
For A27N, the abundance fitness was -0.165 ± 0.16.
In the case of A27E, the abundance fitness was -0.672 ± 0.14.
In the case of A27V, the abundance fitness was -0.077 ± 0.1.
On to L33D, for which the abundance fitness was -1.04 ± 0.24.
Consider L33C, for which the abundance fitness was 0.026 ± 0.14.
Next, L33Q: -0.114 ± 0.19; L33S: 0.141 ± 0.1.
With L33Y, the abundance fitness is -0.025 ± 0.16.
For L33P, the abundance fitness was -0.404 ± 0.17.
Consider L33A, for which the abundance fitness amounted to 0.123 ± 0.12.
Regarding L33G, the abundance fitness was -0.195 ± 0.095.
For L33T, the abundance fitness came to 0.162 ± 0.12.
Regarding L33F, the abundance fitness turned out to be 0.022 ± 0.18.
Consider L33N, for which the abundance fitness was -0.547 ± 0.27.
The figure for L33K is -0.103 ± 0.14; for L33E it is -0.496 ± 0.12.
Take L33M: the abundance fitness is -0.084 ± 0.16.
Next, L33W: 0.024 ± 0.11.
In the case of I18S, the abundance fitness is -0.081 ± 0.1.
In the case of I18P, the abundance fitness is -0.369 ± 0.14.
For I18F, the abundance fitness stood at 0.158 ± 0.16.
In the case of I18E, the abundance fitness is 0.046 ± 0.15.
For I18Q, the abundance fitness is -0.14 ± 0.14.
On to I18Y, for which the abundance fitness was -0.231 ± 0.17.
As for I18K, the abundance fitness was -0.305 ± 0.18.
Turning to I18G, the abundance fitness is -0.042 ± 0.087.
Take I18A: the abundance fitness is -0.123 ± 0.12.
Regarding I18V, the abundance fitness is -0.161 ± 0.1.
On to I18H, for which the abundance fitness is -0.408 ± 0.3.
Take I18R: the abundance fitness was -0.06 ± 0.086.
As to I18M, the abundance fitness was found to be 0.022 ± 0.11.
Consider I18W, for which the abundance fitness is -0.218 ± 0.1.
Next, I18D: -0.058 ± 0.14; I18C: -0.216 ± 0.12.
For the variant I18T, the abundance fitness stood at 0.221 ± 0.15.
As to C24W, the abundance fitness was -0.901 ± 0.16.
Regarding C24T, the abundance fitness is -0.768 ± 0.21.
Turning to C24E, the abundance fitness is -0.822 ± 0.17.
Turning to C24F, the abundance fitness is -0.882 ± 0.27.
For the variant C24M, the abundance fitness is -0.751 ± 0.15.
The figure for C24G is -0.695 ± 0.1; for C24L it is -1.19 ± 0.16; for C24S it is -0.681 ± 0.15.
Consider C24V, for which the abundance fitness is -0.99 ± 0.13.
With C24N, the abundance fitness is -0.401 ± 0.22.
For C24I, the abundance fitness is -1.18 ± 0.36.
C24P: the abundance fitness was -0.652 ± 0.17.
Regarding C24Q, the abundance fitness was -1.15 ± 0.28.
In the case of C24A, the abundance fitness is -1.1 ± 0.15.
C24Y: the abundance fitness is -1.31 ± 0.25.
In the case of C24D, the abundance fitness is -0.647 ± 0.2.
On to C24R, for which the abundance fitness is -0.775 ± 0.11.
Next, P25V: -0.241 ± 0.11; P25R: -0.054 ± 0.094; P25M: -0.194 ± 0.15.
With P25Q, the abundance fitness is -0.058 ± 0.15.
On to P25I, for which the abundance fitness was -0.057 ± 0.27.
The figure for P25T is -0.192 ± 0.22; for P25A it is -0.243 ± 0.11; for P25W it is -0.27 ± 0.13.
On to P25C, for which the abundance fitness was found to be 0.034 ± 0.15.
The figure for P25N is 0.185 ± 0.19; for P25E it is 0.198 ± 0.12; for P25K it is -0.274 ± 0.22.
Take P25D: the abundance fitness was -0.276 ± 0.18.
On to P25H, for which the abundance fitness is -0.485 ± 0.46.
Next, P25F: 0.079 ± 0.14.
As to P25Y, the abundance fitness is -0.135 ± 0.25.
For the variant P25L, the abundance fitness was -0.044 ± 0.12.
The figure for P25S is 0.068 ± 0.11; for P25G it is -0.044 ± 0.096.
